B1: library; numbered along this chain (parent)
chain: MRKPRAAVGSGHRKQAASQEGRQKHAKNNSQAKPSACDGLARQPEEVVLQASVSSYHLFRDVAEVTAFRGSLLSWYDQEKRDLPWRRRAEDEMDLDRRAYAVWVSEVMLQQTQVATVINYYTGWMQKWPTLQDLASASLEEVNQLWAGLGYYSRGRRLQEGARKVVEELGGHMPRTAETLQQLLPGVGRYTAGAIASIAFGQATGVVDGNVARVLCRVRAIGADPSSTLVSQQLWGLAQQLVDPARPGDFNQAAMELGATVCTPQRPLCSQCPVESLCRARQRVEQEQLLASGSLSGSPDVEECAPNTGQCHLCLPPSEPWDQTLGVVNFPRKASRKPPREESSATCVLEQPGALGAQILLVQRPNSGLLAGLWEFPSVTWEPSEQLQRKALLQELQRWAGPLPATHLRHLGEVVHTFSHIKLTYQVYGLALEGQTPVTTVPPGARWLTQEEFHTAAVSTAMKKVFRVYQGQQPGTCMGSKRSQVSSPCSRKKPRMGQQVLDNFFRSHISTDAHSLNSAAQ

Variants of: B1
Experiment: 8OG:A repair function score (normalized; synonymous = 0, nonsense = -1) (normalized log-likelihood score); higher = more repair activity (WT-like)
Conditions: with 8OG:A DNA repair reporter (GFP) in HEK-293 MUTYH KO cells
Description: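 Saturation mutagenesis (NNN codon scan) of the MUTYH cDNA (521-aa nuclear isoform NM_001048174.1 / NP_001041639), stably expressed under doxycycline induction in HEK-293 MUTYH knockout cells. Cells were co-transfected with an 8OG:A-bearing GFP repair reporter plus mCherry and sorted 72 h later into GFP+ and GFP− bins, three replicates per tile. The Rosace log2 enrichment (GFP+ vs GFP−) was converted per tile to a normalized function score with synonymous variants centered at 0 and nonsense variants (codons 1-471) at -1; low-abundance variants were removed.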

Point of comparison: MRKPRAAVGSGHRKQAASQEGRQKHAKNNSQAKPSACDGLARQPEEVVLQAVVSSYHLFRDVAEVTAFRGSLLSWYDQEKRDLPWRRRAEDEMDLDRRAYAVWVSEVMLQQTQVATVINYYTGWMQKWPTLQDLASASLEEVNQLWAGLGYYSRGRRLQEGARKVVEELGGHMPRTAETLQQLLPGVGRYTAGAIASIAFGQATGVVDGNVARVLCRVRAIGADPSSTLVSQQLWGLAQQLVDPARPGDFNQAAMELGATVCTPQRPLCSQCPVESLCRARQRVEQEQLLASGSLSGSPDVEECAPNTGQCHLCLPPSEPWDQTLGVVNFPRKASRKPPREESSATCVLEQPGALGAQILLVQRPNSGLLAGLWEFPSVTWEPSEQLQRKALLQELQRWAGPLPATHLRHLGEVVHTFSHIKLTYQVYGLALEGQTPVTTVPPGARWLTQEEFHTAAVSTAMKKVFRVYQGQQPGTCMGSKRSQVSSPCSRKKPRMGQQVLDNFFRSHISTDAHSLNSAAQ [S52V], “8OG:A repair function score” value -0.00119. Against it:
- MRKPRAAVGSGHRKQAASQEGRQKHAKNNSQAKPSACDGLARQPEEVVLQARVSSYHLFRDVAEVTAFRGSLLSWYDQEKRDLPWRRRAEDEMDLDRRAYAVWVSEVMLQQTQVATVINYYTGWMQKWPTLQDLASASLEEVNQLWAGLGYYSRGRRLQEGARKVVEELGGHMPRTAETLQQLLPGVGRYTAGAIASIAFGQATGVVDGNVARVLCRVRAIGADPSSTLVSQQLWGLAQQLVDPARPGDFNQAAMELGATVCTPQRPLCSQCPVESLCRARQRVEQEQLLASGSLSGSPDVEECAPNTGQCHLCLPPSEPWDQTLGVVNFPRKASRKPPREESSATCVLEQPGALGAQILLVQRPNSGLLAGLWEFPSVTWEPSEQLQRKALLQELQRWAGPLPATHLRHLGEVVHTFSHIKLTYQVYGLALEGQTPVTTVPPGARWLTQEEFHTAAVSTAMKKVFRVYQGQQPGTCMGSKRSQVSSPCSRKKPRMGQQVLDNFFRSHISTDAHSLNSAAQ [S52R] — higher, 0.00314
- MRKPRAAVGSGHRKQAASQEGRQKHAKNNSQAKPSACDGLARQPEEVVLQAYVSSYHLFRDVAEVTAFRGSLLSWYDQEKRDLPWRRRAEDEMDLDRRAYAVWVSEVMLQQTQVATVINYYTGWMQKWPTLQDLASASLEEVNQLWAGLGYYSRGRRLQEGARKVVEELGGHMPRTAETLQQLLPGVGRYTAGAIASIAFGQATGVVDGNVARVLCRVRAIGADPSSTLVSQQLWGLAQQLVDPARPGDFNQAAMELGATVCTPQRPLCSQCPVESLCRARQRVEQEQLLASGSLSGSPDVEECAPNTGQCHLCLPPSEPWDQTLGVVNFPRKASRKPPREESSATCVLEQPGALGAQILLVQRPNSGLLAGLWEFPSVTWEPSEQLQRKALLQELQRWAGPLPATHLRHLGEVVHTFSHIKLTYQVYGLALEGQTPVTTVPPGARWLTQEEFHTAAVSTAMKKVFRVYQGQQPGTCMGSKRSQVSSPCSRKKPRMGQQVLDNFFRSHISTDAHSLNSAAQ [S52Y] — higher, 0.0053
- MRKPRAAVGSGHRKQAASQEGRQKHAKNNSQAKPSACDGLARQPEEVVLQATVSSYHLFRDVAEVTAFRGSLLSWYDQEKRDLPWRRRAEDEMDLDRRAYAVWVSEVMLQQTQVATVINYYTGWMQKWPTLQDLASASLEEVNQLWAGLGYYSRGRRLQEGARKVVEELGGHMPRTAETLQQLLPGVGRYTAGAIASIAFGQATGVVDGNVARVLCRVRAIGADPSSTLVSQQLWGLAQQLVDPARPGDFNQAAMELGATVCTPQRPLCSQCPVESLCRARQRVEQEQLLASGSLSGSPDVEECAPNTGQCHLCLPPSEPWDQTLGVVNFPRKASRKPPREESSATCVLEQPGALGAQILLVQRPNSGLLAGLWEFPSVTWEPSEQLQRKALLQELQRWAGPLPATHLRHLGEVVHTFSHIKLTYQVYGLALEGQTPVTTVPPGARWLTQEEFHTAAVSTAMKKVFRVYQGQQPGTCMGSKRSQVSSPCSRKKPRMGQQVLDNFFRSHISTDAHSLNSAAQ [S52T] — higher, 0.00677
- MRKPRAAVGSGHRKQAASQEGRQKHAKNNSQAKPSACDGLARQPEEVVLQAWVSSYHLFRDVAEVTAFRGSLLSWYDQEKRDLPWRRRAEDEMDLDRRAYAVWVSEVMLQQTQVATVINYYTGWMQKWPTLQDLASASLEEVNQLWAGLGYYSRGRRLQEGARKVVEELGGHMPRTAETLQQLLPGVGRYTAGAIASIAFGQATGVVDGNVARVLCRVRAIGADPSSTLVSQQLWGLAQQLVDPARPGDFNQAAMELGATVCTPQRPLCSQCPVESLCRARQRVEQEQLLASGSLSGSPDVEECAPNTGQCHLCLPPSEPWDQTLGVVNFPRKASRKPPREESSATCVLEQPGALGAQILLVQRPNSGLLAGLWEFPSVTWEPSEQLQRKALLQELQRWAGPLPATHLRHLGEVVHTFSHIKLTYQVYGLALEGQTPVTTVPPGARWLTQEEFHTAAVSTAMKKVFRVYQGQQPGTCMGSKRSQVSSPCSRKKPRMGQQVLDNFFRSHISTDAHSLNSAAQ [S52W] — lower, -0.00265
- MRKPRAAVGSGHRKQAASQEGRQKHAKNNSQAKPSACDGLARQPEEVVLQAQVSSYHLFRDVAEVTAFRGSLLSWYDQEKRDLPWRRRAEDEMDLDRRAYAVWVSEVMLQQTQVATVINYYTGWMQKWPTLQDLASASLEEVNQLWAGLGYYSRGRRLQEGARKVVEELGGHMPRTAETLQQLLPGVGRYTAGAIASIAFGQATGVVDGNVARVLCRVRAIGADPSSTLVSQQLWGLAQQLVDPARPGDFNQAAMELGATVCTPQRPLCSQCPVESLCRARQRVEQEQLLASGSLSGSPDVEECAPNTGQCHLCLPPSEPWDQTLGVVNFPRKASRKPPREESSATCVLEQPGALGAQILLVQRPNSGLLAGLWEFPSVTWEPSEQLQRKALLQELQRWAGPLPATHLRHLGEVVHTFSHIKLTYQVYGLALEGQTPVTTVPPGARWLTQEEFHTAAVSTAMKKVFRVYQGQQPGTCMGSKRSQVSSPCSRKKPRMGQQVLDNFFRSHISTDAHSLNSAAQ [S52Q] — lower, -0.0208
- MRKPRAAVGSGHRKQAASQEGRQKHAKNNSQAKPSACDGLARQPEEVVLQASDSSYHLFRDVAEVTAFRGSLLSWYDQEKRDLPWRRRAEDEMDLDRRAYAVWVSEVMLQQTQVATVINYYTGWMQKWPTLQDLASASLEEVNQLWAGLGYYSRGRRLQEGARKVVEELGGHMPRTAETLQQLLPGVGRYTAGAIASIAFGQATGVVDGNVARVLCRVRAIGADPSSTLVSQQLWGLAQQLVDPARPGDFNQAAMELGATVCTPQRPLCSQCPVESLCRARQRVEQEQLLASGSLSGSPDVEECAPNTGQCHLCLPPSEPWDQTLGVVNFPRKASRKPPREESSATCVLEQPGALGAQILLVQRPNSGLLAGLWEFPSVTWEPSEQLQRKALLQELQRWAGPLPATHLRHLGEVVHTFSHIKLTYQVYGLALEGQTPVTTVPPGARWLTQEEFHTAAVSTAMKKVFRVYQGQQPGTCMGSKRSQVSSPCSRKKPRMGQQVLDNFFRSHISTDAHSLNSAAQ [V53D] — higher, 0.00694
- MRKPRAAVGSGHRKQAASQEGRQKHAKNNSQAKPSACDGLARQPEEVVLQASCSSYHLFRDVAEVTAFRGSLLSWYDQEKRDLPWRRRAEDEMDLDRRAYAVWVSEVMLQQTQVATVINYYTGWMQKWPTLQDLASASLEEVNQLWAGLGYYSRGRRLQEGARKVVEELGGHMPRTAETLQQLLPGVGRYTAGAIASIAFGQATGVVDGNVARVLCRVRAIGADPSSTLVSQQLWGLAQQLVDPARPGDFNQAAMELGATVCTPQRPLCSQCPVESLCRARQRVEQEQLLASGSLSGSPDVEECAPNTGQCHLCLPPSEPWDQTLGVVNFPRKASRKPPREESSATCVLEQPGALGAQILLVQRPNSGLLAGLWEFPSVTWEPSEQLQRKALLQELQRWAGPLPATHLRHLGEVVHTFSHIKLTYQVYGLALEGQTPVTTVPPGARWLTQEEFHTAAVSTAMKKVFRVYQGQQPGTCMGSKRSQVSSPCSRKKPRMGQQVLDNFFRSHISTDAHSLNSAAQ [V53C] — higher, 0.000965
- MRKPRAAVGSGHRKQAASQEGRQKHAKNNSQAKPSACDGLARQPEEVVLQASGSSYHLFRDVAEVTAFRGSLLSWYDQEKRDLPWRRRAEDEMDLDRRAYAVWVSEVMLQQTQVATVINYYTGWMQKWPTLQDLASASLEEVNQLWAGLGYYSRGRRLQEGARKVVEELGGHMPRTAETLQQLLPGVGRYTAGAIASIAFGQATGVVDGNVARVLCRVRAIGADPSSTLVSQQLWGLAQQLVDPARPGDFNQAAMELGATVCTPQRPLCSQCPVESLCRARQRVEQEQLLASGSLSGSPDVEECAPNTGQCHLCLPPSEPWDQTLGVVNFPRKASRKPPREESSATCVLEQPGALGAQILLVQRPNSGLLAGLWEFPSVTWEPSEQLQRKALLQELQRWAGPLPATHLRHLGEVVHTFSHIKLTYQVYGLALEGQTPVTTVPPGARWLTQEEFHTAAVSTAMKKVFRVYQGQQPGTCMGSKRSQVSSPCSRKKPRMGQQVLDNFFRSHISTDAHSLNSAAQ [V53G] — lower, -0.0541
- MRKPRAAVGSGHRKQAASQEGRQKHAKNNSQAKPSACDGLARQPEEVVLQASASSYHLFRDVAEVTAFRGSLLSWYDQEKRDLPWRRRAEDEMDLDRRAYAVWVSEVMLQQTQVATVINYYTGWMQKWPTLQDLASASLEEVNQLWAGLGYYSRGRRLQEGARKVVEELGGHMPRTAETLQQLLPGVGRYTAGAIASIAFGQATGVVDGNVARVLCRVRAIGADPSSTLVSQQLWGLAQQLVDPARPGDFNQAAMELGATVCTPQRPLCSQCPVESLCRARQRVEQEQLLASGSLSGSPDVEECAPNTGQCHLCLPPSEPWDQTLGVVNFPRKASRKPPREESSATCVLEQPGALGAQILLVQRPNSGLLAGLWEFPSVTWEPSEQLQRKALLQELQRWAGPLPATHLRHLGEVVHTFSHIKLTYQVYGLALEGQTPVTTVPPGARWLTQEEFHTAAVSTAMKKVFRVYQGQQPGTCMGSKRSQVSSPCSRKKPRMGQQVLDNFFRSHISTDAHSLNSAAQ [V53A] — higher, 0.00104
- MRKPRAAVGSGHRKQAASQEGRQKHAKNNSQAKPSACDGLARQPEEVVLQASESSYHLFRDVAEVTAFRGSLLSWYDQEKRDLPWRRRAEDEMDLDRRAYAVWVSEVMLQQTQVATVINYYTGWMQKWPTLQDLASASLEEVNQLWAGLGYYSRGRRLQEGARKVVEELGGHMPRTAETLQQLLPGVGRYTAGAIASIAFGQATGVVDGNVARVLCRVRAIGADPSSTLVSQQLWGLAQQLVDPARPGDFNQAAMELGATVCTPQRPLCSQCPVESLCRARQRVEQEQLLASGSLSGSPDVEECAPNTGQCHLCLPPSEPWDQTLGVVNFPRKASRKPPREESSATCVLEQPGALGAQILLVQRPNSGLLAGLWEFPSVTWEPSEQLQRKALLQELQRWAGPLPATHLRHLGEVVHTFSHIKLTYQVYGLALEGQTPVTTVPPGARWLTQEEFHTAAVSTAMKKVFRVYQGQQPGTCMGSKRSQVSSPCSRKKPRMGQQVLDNFFRSHISTDAHSLNSAAQ [V53E] — higher, 0.00193
- MRKPRAAVGSGHRKQAASQEGRQKHAKNNSQAKPSACDGLARQPEEVVLQASFSSYHLFRDVAEVTAFRGSLLSWYDQEKRDLPWRRRAEDEMDLDRRAYAVWVSEVMLQQTQVATVINYYTGWMQKWPTLQDLASASLEEVNQLWAGLGYYSRGRRLQEGARKVVEELGGHMPRTAETLQQLLPGVGRYTAGAIASIAFGQATGVVDGNVARVLCRVRAIGADPSSTLVSQQLWGLAQQLVDPARPGDFNQAAMELGATVCTPQRPLCSQCPVESLCRARQRVEQEQLLASGSLSGSPDVEECAPNTGQCHLCLPPSEPWDQTLGVVNFPRKASRKPPREESSATCVLEQPGALGAQILLVQRPNSGLLAGLWEFPSVTWEPSEQLQRKALLQELQRWAGPLPATHLRHLGEVVHTFSHIKLTYQVYGLALEGQTPVTTVPPGARWLTQEEFHTAAVSTAMKKVFRVYQGQQPGTCMGSKRSQVSSPCSRKKPRMGQQVLDNFFRSHISTDAHSLNSAAQ [V53F] — lower, -0.00754

Source: the supplement of paper PMC11908140
